Values quoted from earlier work as cited in article PMC5414288, “^99mTc-radiolabeled GE11-modified peptide for ovarian tumor targeting” (DARU Journal of Pharmaceutical Sciences, 2017).

Target: EGFR (Homo sapiens) (UniProt P00533)

For GE11, the Kd is given as 22 nM.
